± gives the standard deviation of the averaged measurements.
B1: library; a variant is named by its letters at N, in order (parent)
chain: GCUGUCACCGGUGUAUUACCCUAGUGGUCGACCGGUCUGAUGAGUCUNNNNNNAGACGAAACAGC

Tests used:
[1] = variants of: B1; experiment: normalized RNA/DNA level with ligand (relative to sTRSVctl = 100) (log10 (% of sTRSVctl)); ligand: hypoxanthine (xanthine aptamer); higher = less ribozyme self-cleavage, higher mRNA level; settings: ligand concentration (+) RNA-Seq: 5 mM, HEK293T, reporter: mCherry (pCS4076), ligand present: yes
Procedure, shortened: (§1)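 Ribozyme switch library plasmids with mCherry reporters (eGFP in certain ligand experiments) went into HEK293T cells at 4 µg per 6-well well. Where ligand was used, it was applied 1 h before transfection, and total RNA was extracted with EDTA 72 h later for reverse transcription, amplification, barcoding and sequencing. RNA level is the RNA-to-DNA read ratio normalized to a spiked-in non-cleaving sequence or to the leading sequences, then scaled and log-transformed. Scaling was ×100 with log10, the leading set comprised 25 sequences, and the cutoff was ≥100 DNA reads.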

[2] = variants of: B1; experiment: normalized RNA/DNA level without ligand (relative to sTRSVctl = 100) (log10 (% of sTRSVctl)); ligand: hypoxanthine (xanthine aptamer); higher = less ribozyme self-cleavage, higher mRNA level; settings: HEK293T, reporter: mCherry (pCS4076), ligand present: no
Procedure, shortened: as §1

Variant | normalized RNA/DNA level with ligand (log10) [1] | normalized RNA/DNA level without ligand (log10) [2]
CUUACG | 1.96 ± 0.025 | 1.87 ± 0.086
AUGGCA | 1.92 ± 0.035 | 1.787 ± 0.017
AUGGCC | 1.959 ± 0.015 | 1.883 ± 0.014
AUGGCU | 1.89 ± 0.026 | 1.86 ± 0.031
GUGCUC | 1.909 ± 0.011 | 1.85 ± 0.034
GUGCUU | 1.96 ± 0.027 | 1.89 ± 0.019
GUGCUA | 1.93 ± 0.017 | 1.75 ± 0.093
GUCUUG | 1.9 ± 0.086 | 1.52 ± 0.066
GUCUUA | 1.932 ± 0.0061 | 1.87 ± 0.021
GUCUUC | 1.99 ± 0.042 | 1.9928 ± 0.0007
GUCUUU | 1.946 ± 0.003 | 1.885 ± 0.0085
AUGGAU | 1.912 ± 0.0082 | 1.6566 ± 0.0015
UUGUAC | 2 ± 0.025 | 1.973 ± 0.0097
UUGUAG | 1.99 ± 0.025 | 1.84 ± 0.025
UUGUAA | 1.976 ± 0.014 | 1.9 ± 0.042
CUGACG | 1.89 ± 0.057 | 1.86 ± 0.074
CUGACU | 1.99 ± 0.038 | 1.9 ± 0.072
UUGGUC | 1.97 ± 0.034 | 2.006 ± 0.0099
UUGGUA | 1.937 ± 0.0068 | 1.885 ± 0.0069
UUGGUU | 1.99 ± 0.037 | 1.91 ± 0.025

Variant | normalized RNA/DNA level with ligand (log10) [1] | normalized RNA/DNA level without ligand (log10) [2]
UUGGUG | 2.008 ± 0.0026 | 1.81 ± 0.054
CUGAUC | 1.98 ± 0.035 | 1.949 ± 0.019
CUGAUU | 1.94 ± 0.096 | 1.87 ± 0.031
CUGAUG | 1.936 ± 0.0068 | 1.646 ± 0.0062
GUGGCC | 1.98 ± 0.027 | 1.88 ± 0.023
GUGGCA | 1.98 ± 0.02 | 1.83 ± 0.072
GUGGCU | 1.96 ± 0.042 | 1.881 ± 0.0077
AUGGGC | 1.94 ± 0.064 | 1.81 ± 0.022
AUGGGU | 1.88 ± 0.066 | 1.534 ± 0.0046
AUGGGG | 1.88 ± 0.08 | 1.4 ± 0.081
AUUACC | 1.926 ± 0.013 | 1.94 ± 0.038
AUUACU | 1.956 ± 0.0042 | 1.819 ± 0.017
CUCUGA | 1.96 ± 0.047 | 1.944 ± 0.009
CUCUGG | 1.937 ± 0.0091 | 1.75 ± 0.084
CUCUGU | 1.963 ± 0.0084 | 1.94 ± 0.028
UUCUCU | 1.99 ± 0.084 | 1.89 ± 0.051
UUCUCA | 1.98 ± 0.033 | 1.918 ± 0.013
UUCUCC | 1.97 ± 0.072 | 1.99 ± 0.082
CUCUAU | 2.03 ± 0.035 | 1.848 ± 0.0086
AUUAAC | 1.881 ± 0.0094 | 1.8077 ± 0.0004

Variant | normalized RNA/DNA level with ligand (log10) [1] | normalized RNA/DNA level without ligand (log10) [2]
CUGGCU | 1.96 ± 0.077 | 1.915 ± 0.0057
CUGGCG | 1.97 ± 0.029 | 1.827 ± 0.0095
CUGGCC | 1.98 ± 0.16 | 1.91 ± 0.042
CUGGCA | 1.971 ± 0.0092 | 1.88 ± 0.039
CUGUAC | 1.93 ± 0.033 | 1.75 ± 0.093
CUGUAA | 1.917 ± 0.017 | 1.713 ± 0.006
CUGUAG | 1.88 ± 0.024 | 1.65 ± 0.032
UUUAGA | 1.93 ± 0.054 | 1.75 ± 0.035
GUUACA | 1.92 ± 0.031 | 1.8382 ± 0.0018
UUGAUC | 1.952 ± 0.0039 | 2.02 ± 0.035
UUGAUU | 1.98 ± 0.03 | 1.905 ± 0.011
UUGAUG | 1.94 ± 0.045 | 1.8 ± 0.029
UUGGGG | 1.91 ± 0.047 | 1.82 ± 0.042
UUGGGC | 2.05 ± 0.032 | 1.914 ± 0.012
UUGGGA | 2.02 ± 0.07 | 1.71 ± 0.053
UUGGGU | 2.014 ± 0.011 | 1.82 ± 0.053
AUGCUU | 1.93 ± 0.088 | 1.861 ± 0.018
AUGCUG | 1.898 ± 0.0024 | 1.61 ± 0.048

From the supplement of paper PMC6757056
